# Data: the nanobody polyreactivity screen of Harvey et al. (2022)
# Assay: yeast display, Sf9 membrane polyspecificity reagent, FACS + sequencing; frameworks hold sequencing errors
# Summary of the method: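 Synthetic nanobody libraries on Saccharomyces cerevisiae BJ5465 were galactose-induced for 36–48 hours, stained 1 hour at 4 °C with 10% biotinylated, detergent-solubilized Sf9 membrane reagent and enriched on streptavidin microbeads. FACS then separated cells into low and high (top ~1%) gates by anti-HA (expression) and streptavidin (reagent binding) fluorescence. Genes were colony-PCR amplified, MiSeq 2 × 250 sequenced and CDR-length filtered. A clone's polyreactivity label is that of its gate of origin.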
row,Sequence,polyreactivity (PSR sort gate)
1,QVQLVESGGGLVQEGGSLRLSCAAYGFIFGDNALGWYRQAPGKERELVAGSTVSDGSTYYADSVKGRFTISRDNAKNTVYLLMNSLKPEDTAVYYCNAAGRYKPGAPYDYWGQGNQVTVSS,low polyreactivity
2,QVQLVESGGGLVQEGGSLRLSCACSARTITGYAIGWYRQAPGQEWEVVAAIYRRGASTYYADSVKGRFTISRDNAKNTVYLEMNSLKPEDTAVDYCAAYLYGLWSVGRDYWGQGTQVTVSS,high polyreactivity
3,QVQLVESGGGLVQEGGSLRLSCADSGRIFSTNAMGWSRQAPGKERELVAAISWSTGSTYYADSVKGRFTISRDNAKNTVYLQMNSLKPEDTAVYYCAASYTRTYWAYSYGYWGQGTQVTVSS,high polyreactivity
4,QVQLVESGGGLVQEGGSLRLSCADSGSTFHYYTMGWYRQAPGKERELVAAISWRGTSTYYADSVKGRFTISRDNAKNTVYLQMNSLKPEDTAVYYCAVRSSPGAGYYYWGQGTQVTVSS,high polyreactivity
5,QVQLVESGGGLVQEGGSLRLSCDASAITIGRYAMGWYRQAPGKERELVAAISWSGGSTYFADSVKGRFTISRDNAKNTVYLHMNSLKPEDTAVYYCATRIRTVAYNYWGQGTQVTVSS,high polyreactivity
6,QVQLVESGGGLVQEGGSLRLTCAASGITFIYYAMGWYRQAPGKERELVAAISTGGSTYYADSVKGRCTISRDNAMNTVYLQMISLKPEDTAVYYWNALRKSLRGGDYWGQGTQVTVSS,high polyreactivity
7,QVQLVESGGGLVQEGGSLSLSCAASGLTFTGNAMAWYRQAPGKEREFVAAIRWSAGSTYYADSVKGRFTISRDNAKNTVYLQMNSLKPEDTAVYYCYAALNVSGHYPNDYCGQGTQVTVSS,low polyreactivity
8,QVQLVESGGGLVQEVGSLRISCAASGRIFYVYSMGWYRQAPGKERELVAAITSGGRTDYADSVKGRFTISRDNAKNTVYLQLNSLKPEDTAVYYCAAGGGWNGHRHRWLYGYGYWGQGTQVTVSS,high polyreactivity
9,QVQLVESGGGLVQGGGSLRLSCAASGLILRKYAMGWYRQAPGKEREFVAAITQTGSRTYYADSVKGRFTISRDNAKNTVYLQMNSLKPEDTAVYYCNAVNYRSSRDSGYWGQGTQVTVSS,high polyreactivity
10,QVQLVESGGGLVQGGGSLRLSCAASGRTFRYYAMGWYRQAPGKERELVAAITRSGGSTYYADSVKGRFTISRDNAKYTVYLQMNSLKPEDTAVYYCAASRFTSYGIDYDYWAQGTQVTVSS,high polyreactivity
11,QVQLVESGGGLVQGGGSLRLSCAASGSTFAVYDMGWYRPAPGKERELVAAITVSGSSTHYADSVKGRFTISRDNAKNTVYLQMNSLKPEDTAVYYWGQGTQVTVSS,low polyreactivity
12,QVQLVESGGGLVQGGGSLRLSCAASGSTFGRYAMGWYRQAPGKEREFVAGITGRGGSTYYADSVKGRFTISRDNAKNTVYLQMNSLKPQDTAVYYCAAGYRVGYLRAGDYWGQGTQVTVSS,high polyreactivity
13,QVQLVESGGGLVQGGGSLRLSCDDSGRNFNAYSRGWYRQATAKERELVAAISSRGGSTYYADSVKGRFTISRDNEMNSVYLKMNSLQPEDSAVYYFAAGIYTATGYGYWGQGTQVTVSS,high polyreactivity
14,QVQLVESGGGLVQGGSLRLSCAASGFTFPIYVMGGYRQAPGKERELVASISSVGSTNYADSVKGRFTISRDNAKNTVYLQMNSLKPEDTAVYYCNADAPNSYGGFDYWGQGTQVTVSS,low polyreactivity
15,QVQLVESGGGLVQPEGSLRLSSAASGRTFDYYALGWYRQAPGKERELVAAITWRGVSTYYADSVKGRFTISRDNAKNTVYLQMNSLKPEDTAVYYCAAYSYPYWQKRPYDYWGQGTQVTVSS,low polyreactivity
16,QVQLVESGGGLVQPGGSLRLRCAASGFIFWIYAMGWYRQAPGKERELVAAISLSSGSTYYADSVKGRFTISRDNAKNTVYLEMNSLKTEDTAVYYCAARGYSHVASRLYYYWGQGTQVTVSS,high polyreactivity

row,Sequence,polyreactivity (PSR sort gate)
1,QVQLVESGGGLVQPGGSLRLSCAASGATLRSNAMGWSRQAPGKERELVAGISSGGGTYYADSVKGRFTISRDNAKNTVYLQMNSLNTEDTAVYYCAKVVYFGWSVQYYYWGQGTQVNVSS,low polyreactivity
2,QVQLVESGGGLVQPGGSLRLSCAASGFIFSYYAIGWYRQAPGKERELVAAISYRGGSTHYADSVKGRFTISRDNAKNTVYLQMNSLKPEDTAVYYCAADRVRRPSPVGMDYWGQGTQVTVSS,high polyreactivity
3,QVQLVESGGGLVQPGGSLRLSCAASGFIFSYYAMGWYRQAPGKERELVAAITQSGGGTYYADSVKGRFTISRDNAKNTVYLQMNSLKPEDTAVYYCAVLYYQTRQVYSGYSRYWLYSSRYDYWGQGTQVTVSS,high polyreactivity
4,QVQLVESGGGLVQPGGSLRLSCAASGGIFYGYAMGWYRQAPGKERELVAAISSTGGRTYYADSVKGRFTISRDNAKNTVYLQMNSLKPEDTAVYYCAAEDFTRQFEYWGQGTQVTVSS,low polyreactivity
5,QVQLVESGGGLVQPGGSLRLSCAASGIIFDVYAMGWYRQAPGKERELVAGISSGGSTYYADSVKGRFTISRDNAKNTVYFQMNSLKPEDTAVYYCNADGGYSYESTDHYGYDYWGQGTQVTVSS,low polyreactivity
6,QVQLVESGGGLVQPGGSLRLSCAASGITFRGYAMGWYRQAPGKERELVATISYRGGNTYYADSVKGRFTISRDNAKNTVYLQMNSLKPEDTAVYYCARKYFRTSNLYGYWGQGTQVTVSS,high polyreactivity
7,QVQLVESGGGLVQPGGSLRLSCAASGRIFIVNAMGWYRQAPGKERELVAAISRRGGSTYYADSVKGRFTISRDIAKNTVYLQMNSLKPEDTAVYYCNAVGGRYTGWRYDYWGQGTQVTVSS,high polyreactivity
8,QVQLVESGGGLVQPGGSLRLSCAASGRISSKYAMGWYRQAPGKERELVATISSRGGSTYYADSVKGRFTISRDNAKNTVYLQMNSLKPEDTAVYYCNRPTYLHSTSYSYDYWGQGTQVTVSS,low polyreactivity
9,QVQLVESGGGLVQPGGSLRLSCAASGSILKSYAMGWYRQAPGKERELVAAITYRDGSTYYAHSVKGRFTISRDNSKNTVYLQMNSLKPVDTAVYYCAAEPSWWNVFYPGYNYWGQGTQVTVSS,high polyreactivity
10,QVQLVESGGGLVQPGGSLRLSCAASGSTLTLYDMGWYRQAPGKEWEFVAAIRSHGVSTYYADSEKGRFTISRDNAKNTVYLQMNSLQPEDTAVYYCSSVYIPGGRYTYFPYKRYDYWGQGTKVTVSS,high polyreactivity
11,QVQLVESGGGLVQPGGSLSLSCAASGLTFYSYAMGWSRQAPGKERELVAAITSSGSITYYADSVKGRFTISRDNAKNTVYLQMNSLTPEDTAVYYCAARPYRVRGQRFEGNYCGQGTQVTVSS,high polyreactivity
12,QVQLVESGGGLVQPGVSLRLSCAASGRTSSSYTMGWYRQEPRKECELVAAITSGVRTYYADSVKGRFTISRDNAKNTVYLQMKSLKPEDTAVYYCNARYVPYTYCRKYFKPYDYWGLGTQVTVSS,high polyreactivity
13,QVQLVESGGGLVQRGCSLRLSCAASGSTFGYYTMGWYRQAPGKERELVSAISYSGGRTFYADSVKGRFTISRDNAKNTVYFQMISLKPEDHAVYYCNTRYIPSYLSHLDYWGQGTQVTVSS,high polyreactivity
14,QVQLVESGGGLVQSGASLRLSCAASGRISRFNAMGWYRQAPGKERELVAAISSGGSTHYADSVKGRFTISRDNAKITVYLQMNSLKPEDTAVYYCAASVYRWWRLEAYYYWGQGSQVTVSS,high polyreactivity
15,QVQLVESGGGLVQSGDSLRLSCAASGIILLSYAMGWYIHAPGKERELVAAITSGGGTNYADSVKGRFTISRDNAKNTVYLQMNSLKPEDTAVYYCAVGAYAGLYYYWGQGTQVTVSS,low polyreactivity
